These results are taken from the supplement of paper PMC7877785.

± gives the uncertainty stated by the source.

The nature of the series: self-splicing fitness, log relative to wild type (ln ratio); higher = more splicing; Tetrahymena group I intron in knt gene, E. coli kanamycin selection, DiMSum; sequences stand for … in CUCUCU…GGAGGGAAAAGUUAUCAGGCAUGCACCUGGUAGCUAGUCUUUAAACCAAUAGAUUGCAUCGGUUUAAAAGGCAAGACCGUCAAAUUGCGGGAAAGGGGUCAACAGCCGUUCAGUACCAAGUCUCAGGGGAAACUUUGAGAUGGCCUUGCAAAGGGUAUGGUAAUAAGCUGACGGACAUGGUCCUAACCACGCAGCCAAGUCCUAAGUCAACAGAUCUUCUGUUGAUAUGGAUGCAGUUCACAGACUAAAUGUCGGUCGGGGAAGAUGUAUUCUUCUCAUAAGAUAUAGUCGGACCUCUCCUUAAUGGGAGCUAGCGGAUGAAGUGAUGCAACACUGGAGCCGCUGGGAACUAAUUUGUAUGCGAAAGUAUAUUGAUUAGUUUUGGAGUACUCGUGGUCG
The method in brief:
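A randomised library covering all eight P1ex-region intron nucleotides was built with the intron in the knt kanamycin-resistance gene on pET-22b(+) and held in E. coli BL21(DE3). Cells were grown overnight at 37°C or 30°C on LB agar, with or without 25 μg/mL kanamycin, plus 100 μg/mL carbenicillin, 50 μM IPTG and 0.2% rhamnose, and pooled colonies were amplicon-sequenced on an Illumina HiSeq 2500. DiMSum fitness is the error-weighted combination of wild-type-normalised replicate fold changes, kanamycin versus none.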

Regarding CUCAAGCAAUAUUACGUGAU, the “self-splicing fitness (ln)” value is -1.25 ± 0.053 (30 °C) and -0.372 ± 0.067 (37 °C).

As for GCCUAGCAAUAUUACGCAGG, the “self-splicing fitness (ln)” value by setting is: (30 °C) -4.18 ± 0.28; (37 °C) -2.44 ± 0.25.

AAUUAGCAAUAUUACGGUGA: the “self-splicing fitness (ln)” value was -1.7 ± 0.084 (30 °C) and -0.534 ± 0.099 (37 °C).

Turning to GUUCAGCAAUAUUACGGCUU, the “self-splicing fitness (ln)” value is, setting by setting: (30 °C) -0.546 ± 0.086; (37 °C) 0.571 ± 0.12.

For AGAAAGCAAUAUUACGCUUC, the “self-splicing fitness (ln)” value was -1.58 ± 0.27 (30 °C) and -2.22 ± 0.39 (37 °C). For the sequence GACCAGCAAUAUUACGCAUC, the “self-splicing fitness (ln)” value was -0.629 ± 0.064 (30 °C) and -0.599 ± 0.076 (37 °C). On to AUAAAGCAAUAUUACGCAAG, for which the “self-splicing fitness (ln)” value runs as follows: (30 °C) -1.19 ± 0.12; (37 °C) -0.742 ± 0.14. For AACAAGCAAUAUUACGCAAU, the “self-splicing fitness (ln)” value is, setting by setting: (30 °C) -1.37 ± 0.096; (37 °C) -1.09 ± 0.12.

As to UCAAAGCAAUAUUACGUGUA, the “self-splicing fitness (ln)” value is -1.78 ± 0.07 (30 °C) and -0.388 ± 0.066 (37 °C). As to GCUUAGCAAUAUUACGCCUU, the “self-splicing fitness (ln)” value is, setting by setting: (30 °C) -2.7 ± 0.21; (37 °C) 0.179 ± 0.19. In the case of GCAGAGCAAUAUUACGUGUA, the “self-splicing fitness (ln)” value (30 °C) is -3.61 ± 0.35 and the “self-splicing fitness (ln)” value (37 °C) was -1.17 ± 0.16.

For the sequence CGUCAGCAAUAUUACGAAUU, the “self-splicing fitness (ln)” value is, setting by setting: (30 °C) -2.82 ± 0.2; (37 °C) -0.915 ± 0.14.

With AGCCAGCAAUAUUACGGAUU, the “self-splicing fitness (ln)” value runs as follows: (30 °C) -2.85 ± 0.1; (37 °C) -0.534 ± 0.093. For CUGUAGCAAUAUUACGUCUU, the “self-splicing fitness (ln)” value was -4.7 ± 0.26 (30 °C) and -2.67 ± 0.3 (37 °C). In the case of UCGCAGCAAUAUUACGAAUU, the “self-splicing fitness (ln)” value (30 °C) was -4.07 ± 0.34 and the “self-splicing fitness (ln)” value (37 °C) was -2.75 ± 0.17. With GAGGAGCAAUAUUACGGUAU, the “self-splicing fitness (ln)” value (30 °C) is -2.88 ± 0.35 and the “self-splicing fitness (ln)” value (37 °C) is -1.25 ± 0.45. Turning to GAUCAGCAAUAUUACGAAAG, the “self-splicing fitness (ln)” value (30 °C) was -0.98 ± 0.14 and the “self-splicing fitness (ln)” value (37 °C) was -1.2 ± 0.24. For the sequence AAGGAGCAAUAUUACGACGG, for the setting “37 °C”, the “self-splicing fitness (ln)” value is -0.954 ± 0.16. For the sequence UCAGAGCAAUAUUACGUUUA, the “self-splicing fitness (ln)” value was -3.02 ± 0.25 (30 °C) and -2.6 ± 0.23 (37 °C). Turning to UAGGAGCAAUAUUACGUAAC, the “self-splicing fitness (ln)” value is, setting by setting: (30 °C) -4.94 ± 0.41; (37 °C) -2.48 ± 0.22. For the sequence AGGUAGCAAUAUUACGCGUG, the “self-splicing fitness (ln)” value by setting is: (30 °C) -1.485 ± 0.013; (37 °C) -0.784 ± 0.032.

As for UGGUAGCAAUAUUACGUAUC, the “self-splicing fitness (ln)” value (37 °C) is -2.38 ± 0.45. As for UUCCAGCAAUAUUACGCAAU, the “self-splicing fitness (ln)” value is -2.02 ± 0.17 (30 °C) and -1.31 ± 0.14 (37 °C).

For GCAGAGCAAUAUUACGAAAU, the “self-splicing fitness (ln)” value reads like this: (30 °C) -4.35 ± 0.29; (37 °C) -2.79 ± 0.26. On to CUUGAGCAAUAUUACGGGCG, for which the “self-splicing fitness (ln)” value runs as follows: (30 °C) -2.02 ± 0.13; (37 °C) -1.51 ± 0.11.

Turning to UACAAGCAAUAUUACGCUGG, the “self-splicing fitness (ln)” value runs as follows: (30 °C) -2.54 ± 0.15; (37 °C) -1.87 ± 0.15.

As for GAAGAGCAAUAUUACGGUUU, the “self-splicing fitness (ln)” value reads like this: (30 °C) -1.52 ± 0.12; (37 °C) -0.796 ± 0.16.

For the sequence AGGUAGCAAUAUUACGUGAA, the “self-splicing fitness (ln)” value runs as follows: (30 °C) -2.213 ± 0.016; (37 °C) -1.34 ± 0.034. With AGAGAGCAAUAUUACGUGGA, the “self-splicing fitness (ln)” value was -3.15 ± 0.4 (30 °C) and -2.3 ± 0.5 (37 °C).

As for AUGCAGCAAUAUUACGUAUU, the “self-splicing fitness (ln)” value is -4.03 ± 0.26 (30 °C) and -1.69 ± 0.14 (37 °C). Regarding AUGUAGCAAUAUUACGGCUA, the “self-splicing fitness (ln)” value reads like this: (30 °C) -2.45 ± 0.22; (37 °C) -2.14 ± 0.25. In the same order, the values of AUAUAGCAAUAUUACGGCAU are -0.195 ± 0.089 and 0.155 ± 0.12.

Take ACGAAGCAAUAUUACGGCAU: the “self-splicing fitness (ln)” value (30 °C) was -0.981 ± 0.1 and the “self-splicing fitness (ln)” value (37 °C) came out at 0.219 ± 0.11. With UCAGAGCAAUAUUACGAUUC, the “self-splicing fitness (ln)” value (37 °C) is -1.19 ± 0.41. Consider AAUCAGCAAUAUUACGUUAA, for which the “self-splicing fitness (ln)” value is -0.816 ± 0.072 (30 °C) and -0.587 ± 0.077 (37 °C). In the same order, the values of GAGGAGCAAUAUUACGCUAC are -3.94 ± 0.37 and -2.66 ± 0.33. Regarding CGCGAGCAAUAUUACGAACA, the “self-splicing fitness (ln)” value was -3.27 ± 0.45 (30 °C) and -1.19 ± 0.23 (37 °C). In the case of CACUAGCAAUAUUACGGAAG, the “self-splicing fitness (ln)” value (30 °C) was -0.706 ± 0.088 and the “self-splicing fitness (ln)” value (37 °C) is -0.266 ± 0.097. With UAGAAGCAAUAUUACGUUGU, the “self-splicing fitness (ln)” value by setting is: (30 °C) -4.33 ± 0.18; (37 °C) -2.47 ± 0.14.
